Article PMC10540404

Columns and labels:
[1] = biological target: MHC-I (endogenous, mouse primary cortical neurons) (mouse (endogenous in primary cortical neurons)) (UniProt P01901); experiment: co-IP; cultured mouse primary cortical neurons, with or without oligomeric Aβ; anti-mouse MHC-I antibody (2G5); endogenous MHC-I and NCAM1
[2] = biological target: single-chain trimer (SCT) of HLA-A2.1 (TAX-HLA-A2.1-hβM); experiment: co-IP

UniProt P01901, sequence (P01901 22-369): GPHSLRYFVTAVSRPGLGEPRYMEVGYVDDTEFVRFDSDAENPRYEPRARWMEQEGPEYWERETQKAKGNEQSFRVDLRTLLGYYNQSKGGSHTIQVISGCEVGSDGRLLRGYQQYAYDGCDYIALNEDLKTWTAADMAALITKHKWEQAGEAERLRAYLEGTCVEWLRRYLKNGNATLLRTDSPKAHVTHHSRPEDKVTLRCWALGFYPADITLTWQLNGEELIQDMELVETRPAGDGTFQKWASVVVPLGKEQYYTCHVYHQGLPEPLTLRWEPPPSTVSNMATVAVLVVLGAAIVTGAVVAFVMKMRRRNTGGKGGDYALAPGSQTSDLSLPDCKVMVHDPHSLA

Substance | reduction of co-precipitated NCAM1 with Aβ treatment against control [1] | fold increase of the complex with Aβ treatment [2]
NCAM1 (endogenous, mouse primary cortical neurons) (from UniProt P13595 20-1115) (natural protein) | 50% | –
NCAM1-hemagglutinin (HA) (from UniProt P13591 20-858) (natural protein) | – | 1.5 fold
